Laboratory results taken from US20260242419A1, “A CYCLIC PEPTIDE FOR TRAPPING INTERLEUKIN-1 BETA” (Merck Sharp & Dohme LLC, priority 2023, published 2026).
Starred links: 1 amine or outer side, 2 acyl side, 3 side chain; linkers in the order of their positions; H or OH if unused. Non-standard residues stand in square brackets, D forms with d. dProc3CH2Pyrim = (2R,3S)-3-(pyrimidin-5-ylmethyl)pyrrolidine-2-carboxylic acid, O=C([C@H]1[C@@H](Cc2cncnc2)CCN1[*:1])[*:2]; dProc3Bn = (2R,3S)-3-benzylpyrrolidine-2-carboxylic acid, O=C([C@H]1[C@@H](Cc2ccccc2)CCN1[*:1])[*:2]; dProc4Bn = (2R,4R)-4-benzylpyrrolidine-2-carboxylic acid, O=C([C@H]1C[C@@H](Cc2ccccc2)CN1[*:1])[*:2]; Trp(βS-Me,4-F) = C[C@@H](c1c[nH]c2cccc(F)c12)[C@H](N)C(=O)O; Bip(4'-COOH) = N[C@@H](Cc1ccc(-c2ccc(C(=O)O)cc2)cc1)C(=O)O; dPro(4R-Bzl(4-F)) = O=C(O)[C@H]1C[C@@H](Cc2ccc(F)cc2)CN1; Ala(pyrimidin-5-yl) = N[C@@H](Cc1cncnc1)C(=O)O; Phe(4-COOH) = N[C@@H](Cc1ccc(C(=O)O)cc1)C(=O)O; Pro(cis-4-F) = O=C(O)[C@@H]1C[C@H](F)CN1; 3Pal = N[C@@H](Cc1cccnc1)C(=O)O; 4Pal = N[C@@H](Cc1ccncc1)C(=O)O; Dab = NCC[C@H](N)C(=O)O; Aib = CC(C)(N)C(=O)O

B1: SEQ ID NO: 31 (peptide)
peptide: cyclo([Bip(4'-COOH)][4Pal][Phe(4-COOH)]G[Pro(cis-4-F)][Trp(βS-Me,4-F)][Aib]EW[Aib][Ala(pyrimidin-5-yl)]Q[Dab]G[dProc4Bn])
SMILES: C[C@@H](c1c[nH]c2cccc(F)c12)[C@@H]1NC(=O)[C@@H]2C[C@H](F)CN2C(=O)CNC(=O)[C@H](Cc2ccc(C(=O)O)cc2)NC(=O)[C@H](Cc2ccncc2)NC(=O)[C@H](Cc2ccc(-c3ccc(C(=O)O)cc3)cc2)NC(=O)[C@H]2C[C@@H](Cc3ccccc3)CN2C(=O)CNC(=O)[C@H](CCN)NC(=O)[C@H](CCC(N)=O)NC(=O)[C@H](Cc2cncnc2)NC(=O)C(C)(C)NC(=O)[C@H](Cc2c[nH]c3ccccc23)NC(=O)[C@H](CCC(=O)O)NC(=O)C(C)(C)NC1=O
B2: SEQ ID NO: 3 (peptide)
peptide: cyclo([Bip(4'-COOH)][4Pal][Phe(4-COOH)]G[Pro(cis-4-F)][Trp(βS-Me,4-F)][Aib]EW[Aib][Ala(pyrimidin-5-yl)]QSG[dPro(4R-Bzl(4-F))])
SMILES: C[C@@H](c1c[nH]c2cccc(F)c12)[C@@H]1NC(=O)[C@@H]2C[C@H](F)CN2C(=O)CNC(=O)[C@H](Cc2ccc(C(=O)O)cc2)NC(=O)[C@H](Cc2ccncc2)NC(=O)[C@H](Cc2ccc(-c3ccc(C(=O)O)cc3)cc2)NC(=O)[C@H]2C[C@@H](Cc3ccc(F)cc3)CN2C(=O)CNC(=O)[C@H](CO)NC(=O)[C@H](CCC(N)=O)NC(=O)[C@H](Cc2cncnc2)NC(=O)C(C)(C)NC(=O)[C@H](Cc2c[nH]c3ccccc23)NC(=O)[C@H](CCC(=O)O)NC(=O)C(C)(C)NC1=O
B3: SEQ ID NO: 30 (peptide)
peptide: cyclo([Bip(4'-COOH)][4Pal][Phe(4-COOH)]G[Pro(cis-4-F)][Trp(βS-Me,4-F)][Aib]EW[Aib][Ala(pyrimidin-5-yl)]QSG[dProc4Bn])
SMILES: C[C@@H](c1c[nH]c2cccc(F)c12)[C@@H]1NC(=O)[C@@H]2C[C@H](F)CN2C(=O)CNC(=O)[C@H](Cc2ccc(C(=O)O)cc2)NC(=O)[C@H](Cc2ccncc2)NC(=O)[C@H](Cc2ccc(-c3ccc(C(=O)O)cc3)cc2)NC(=O)[C@H]2C[C@@H](Cc3ccccc3)CN2C(=O)CNC(=O)[C@H](CO)NC(=O)[C@H](CCC(N)=O)NC(=O)[C@H](Cc2cncnc2)NC(=O)C(C)(C)NC(=O)[C@H](Cc2c[nH]c3ccccc23)NC(=O)[C@H](CCC(=O)O)NC(=O)C(C)(C)NC1=O
B4: SEQ ID NO: 27 (peptide)
peptide: cyclo([Bip(4'-COOH)][4Pal][Phe(4-COOH)]G[Pro(cis-4-F)][Trp(βS-Me,4-F)][Aib]EW[Aib]FQSG[dProc3CH2Pyrim])
SMILES: C[C@@H](c1c[nH]c2cccc(F)c12)[C@@H]1NC(=O)[C@@H]2C[C@H](F)CN2C(=O)CNC(=O)[C@H](Cc2ccc(C(=O)O)cc2)NC(=O)[C@H](Cc2ccncc2)NC(=O)[C@H](Cc2ccc(-c3ccc(C(=O)O)cc3)cc2)NC(=O)[C@H]2[C@@H](Cc3cncnc3)CCN2C(=O)CNC(=O)[C@H](CO)NC(=O)[C@H](CCC(N)=O)NC(=O)[C@H](Cc2ccccc2)NC(=O)C(C)(C)NC(=O)[C@H](Cc2c[nH]c3ccccc23)NC(=O)[C@H](CCC(=O)O)NC(=O)C(C)(C)NC1=O
B5: SEQ ID NO: 28 (peptide)
peptide: cyclo([Bip(4'-COOH)][4Pal][Phe(4-COOH)]G[Pro(cis-4-F)][Trp(βS-Me,4-F)][Aib]EW[Aib][Ala(pyrimidin-5-yl)]QSG[dProc3Bn])
SMILES: C[C@@H](c1c[nH]c2cccc(F)c12)[C@@H]1NC(=O)[C@@H]2C[C@H](F)CN2C(=O)CNC(=O)[C@H](Cc2ccc(C(=O)O)cc2)NC(=O)[C@H](Cc2ccncc2)NC(=O)[C@H](Cc2ccc(-c3ccc(C(=O)O)cc3)cc2)NC(=O)[C@H]2[C@@H](Cc3ccccc3)CCN2C(=O)CNC(=O)[C@H](CO)NC(=O)[C@H](CCC(N)=O)NC(=O)[C@H](Cc2cncnc2)NC(=O)C(C)(C)NC(=O)[C@H](Cc2c[nH]c3ccccc23)NC(=O)[C@H](CCC(=O)O)NC(=O)C(C)(C)NC1=O
B6: SEQ ID NO: 32 (peptide)
peptide: cyclo([Bip(4'-COOH)][4Pal][Phe(4-COOH)]G[Pro(cis-4-F)][Trp(βS-Me,4-F)][Aib]EW[Aib]RQSG[dPro(4R-Bzl(4-F))])
SMILES: C[C@@H](c1c[nH]c2cccc(F)c12)[C@@H]1NC(=O)[C@@H]2C[C@H](F)CN2C(=O)CNC(=O)[C@H](Cc2ccc(C(=O)O)cc2)NC(=O)[C@H](Cc2ccncc2)NC(=O)[C@H](Cc2ccc(-c3ccc(C(=O)O)cc3)cc2)NC(=O)[C@H]2C[C@@H](Cc3ccc(F)cc3)CN2C(=O)CNC(=O)[C@H](CO)NC(=O)[C@H](CCC(N)=O)NC(=O)[C@H](CCCNC(=N)N)NC(=O)C(C)(C)NC(=O)[C@H](Cc2c[nH]c3ccccc23)NC(=O)[C@H](CCC(=O)O)NC(=O)C(C)(C)NC1=O
B7: SEQ ID NO: 33 (peptide)
peptide: cyclo([Bip(4'-COOH)][4Pal][Phe(4-COOH)]G[Pro(cis-4-F)][Trp(βS-Me,4-F)][Aib]EW[Aib]RQ[Dab]G[dPro(4R-Bzl(4-F))])
SMILES: C[C@@H](c1c[nH]c2cccc(F)c12)[C@@H]1NC(=O)[C@@H]2C[C@H](F)CN2C(=O)CNC(=O)[C@H](Cc2ccc(C(=O)O)cc2)NC(=O)[C@H](Cc2ccncc2)NC(=O)[C@H](Cc2ccc(-c3ccc(C(=O)O)cc3)cc2)NC(=O)[C@H]2C[C@@H](Cc3ccc(F)cc3)CN2C(=O)CNC(=O)[C@H](CCN)NC(=O)[C@H](CCC(N)=O)NC(=O)[C@H](CCCNC(=N)N)NC(=O)C(C)(C)NC(=O)[C@H](Cc2c[nH]c3ccccc23)NC(=O)[C@H](CCC(=O)O)NC(=O)C(C)(C)NC1=O
B8: SEQ ID NO: 34 (peptide)
peptide: cyclo([Bip(4'-COOH)][4Pal][Phe(4-COOH)]G[Pro(cis-4-F)][Trp(βS-Me,4-F)][Aib]EW[Aib][3Pal]QSG[dPro(4R-Bzl(4-F))])
SMILES: C[C@@H](c1c[nH]c2cccc(F)c12)[C@@H]1NC(=O)[C@@H]2C[C@H](F)CN2C(=O)CNC(=O)[C@H](Cc2ccc(C(=O)O)cc2)NC(=O)[C@H](Cc2ccncc2)NC(=O)[C@H](Cc2ccc(-c3ccc(C(=O)O)cc3)cc2)NC(=O)[C@H]2C[C@@H](Cc3ccc(F)cc3)CN2C(=O)CNC(=O)[C@H](CO)NC(=O)[C@H](CCC(N)=O)NC(=O)[C@H](Cc2cccnc2)NC(=O)C(C)(C)NC(=O)[C@H](Cc2c[nH]c3ccccc23)NC(=O)[C@H](CCC(=O)O)NC(=O)C(C)(C)NC1=O

Each binder was assayed against Recombinant human IL-1β (BioLegend 579404) (human, UniProt P01584 117-269) (assay: cell-based or functional assay).
With B1 the “MRC5 IC50” value was 0.024 nM. cyclo([Bip(4'-COOH)][4Pal][Phe(4-COOH)]G[Pro(cis-4-F)][Trp(βS-Me,4-F)][Aib]EW[Aib][Ala(pyrimidin-5-yl)]Q[Dab]G[dProc3Bn]) [SEQ ID NO: 29] was tested, and the “MRC5 IC50” value was 0.019 nM. B2 was tested, and the “MRC5 IC50” value was 0.037 nM. B3 was tested, and the “MRC5 IC50” value was 0.026 nM. B4 was tested, and the “MRC5 IC50” value was 0.098 nM. B5 was tested, and the “MRC5 IC50” value was 0.023 nM. In the case of B6, the “MRC5 IC50” value is reported as 0.049 nM. For B7, the “MRC5 IC50” value was 0.033 nM. In the case of B8, the “MRC5 IC50” value is reported as 0.032 nM.
